Measured values taken from patent US20240117018A1.

How the values were obtained:
Assay in all cases: cell-based or functional assay
[1] = biological target: HIV-1 Env of pseudovirus HIV-0013095-2.11 (HIV-1)
[2] = biological target: HIV-1 Env of pseudovirus 6545.v4.c1 (HIV-1)
[3] = biological target: HIV-1 Env of pseudovirus REJO4541.67 (HIV-1)
[4] = biological target: HIV-1 Env of pseudovirus SC05_8C11_2344 (HIV-1)
[5] = biological target: HIV-1 Env of pseudovirus X1254_c3 (HIV-1)
[6] = biological target: HIV-1 Env of pseudovirus Q259.d2.17 (HIV-1)
[7] = biological target: HIV-1 Env of pseudovirus 249M B10 (HIV-1)
[8] = biological target: HIV-1 Env of pseudovirus Ce703010054_2A2 (HIV-1)
[9] = biological target: HIV-1 Env of pseudovirus WEAU_d15_410_787 (HIV-1)
[10] = biological target: HIV-1 Env of pseudovirus THRO4156.18 (HIV-1)
[11] = biological target: HIV-1 Env of pseudovirus 1006_11_C3_1601 (HIV-1)
[12] = biological target: HIV-1 Env of pseudovirus ZM197M.PB7 (HIV-1)
[13] = biological target: HIV-1 Env of pseudovirus 62357_14_D3_4589 (HIV-1)
[14] = biological target: HIV-1 Env of pseudovirus CAAN5342.A2 (HIV-1)
[15] = biological target: HIV-1 Env of pseudovirus ZM135M.PL10a (HIV-1)
[16] = biological target: HIV-1 Env of pseudovirus 231965.c01 (HIV-1)
[17] = biological target: HIV-1 Env of pseudovirus CNE20 (HIV-1)
[18] = biological target: HIV-1 Env of pseudovirus HIV-001428-2.42 (HIV-1)
[19] = biological target: HIV-1 Env of pseudovirus CAP210.2.00.E8 (HIV-1)
[20] = biological target: HIV-1 Env of pseudovirus Du156.12 (HIV-1)
[21] = biological target: HIV-1 Env of pseudovirus SC422661.8 (HIV-1)
[22] = biological target: HIV-1 Env of pseudovirus ZM247v1(Rev-) (HIV-1)
[23] = biological target: HIV-1 Env of pseudovirus ZM233M.PB6 (HIV-1)
[24] = biological target: HIV-1 Env of pseudovirus 6952.v1.c20 (HIV-1)
[25] = biological target: HIV-1 Env of pseudovirus QH0692.42 (HIV-1)
[26] = biological target: HIV-1 Env of pseudovirus 3016.v5.c45 (HIV-1)
[27] = biological target: HIV-1 Env of pseudovirus A07412M1.vrc12 (HIV-1)
[28] = biological target: HIV-1 Env of pseudovirus Q23.17 (HIV-1)
[29] = biological target: HIV-1 Env of pseudovirus MS208.A1 (HIV-1)
[30] = biological target: HIV-1 Env of pseudovirus T278-50 (HIV-1)
[31] = biological target: HIV-1 Env of pseudovirus Ce1176_A3 (HIV-1)
[32] = biological target: HIV-1 Env of pseudovirus 620345.c01 (HIV-1)
[33] = biological target: HIV-1 Env of pseudovirus 9004SS_A3_4 (HIV-1)
[34] = biological target: HIV-1 Env of pseudovirus 6535.3 (HIV-1)
[35] = biological target: HIV-1 Env of pseudovirus CNE5 (HIV-1)
[36] = biological target: HIV-1 Env of pseudovirus CNE21 (HIV-1)
[37] = biological target: HIV-1 Env of pseudovirus CNE19 (HIV-1)

## PGT145 (antibody)
[1]
  neutralization IC50: 9.27 µg/mL
  neutralization IC80: > 50 µg/mL
[2]
  IC50 (Titer in TZM.bl cells): 0.114 µg/mL
  IC80 (Titer in TZM.bl cells): 3.1 µg/mL
[3]
  neutralization IC50: < 0.001 µg/mL
  neutralization IC80: 0.001 µg/mL
[4]
  neutralization IC50: 0.093 µg/mL
  neutralization IC80: 0.248 µg/mL
[5]
  IC50 (Titer in TZM.bl cells): 5.6 µg/mL
  IC80 (Titer in TZM.bl cells): > 50 µg/mL
[6]
  neutralization IC50: 44.2 µg/mL
  neutralization IC80: > 50 µg/mL
[7]
  neutralization IC50: 0.947 µg/mL
  neutralization IC80: 41.3 µg/mL
[8]
  neutralization IC50: > 50 µg/mL
  neutralization IC80: > 50 µg/mL
[9]
  neutralization IC50: 1.95 µg/mL
  neutralization IC80: 31.5 µg/mL
[10]
  neutralization IC50: 0.01 µg/mL
  neutralization IC80: 0.029 µg/mL
[11]
  neutralization IC50: > 50 µg/mL
  neutralization IC80: > 50 µg/mL
[12]
  neutralization IC50: 0.628 µg/mL
  neutralization IC80: 5.24 µg/mL
[13]
  neutralization IC50: > 50 µg/mL
  neutralization IC80: > 50 µg/mL
[14]
  neutralization IC50: 6.67 µg/mL
  neutralization IC80: 25.5 µg/mL
[15]
  neutralization IC50: > 50 µg/mL
  neutralization IC80: > 50 µg/mL
[16]
  IC50 (Titer in TZM.bl cells): 0.403 µg/mL
  IC80 (Titer in TZM.bl cells): 15 µg/mL
[17]
  neutralization IC50: 0.318 µg/mL
  neutralization IC80: 6.97 µg/mL
[18]
  neutralization IC50: 0.001 µg/mL
  neutralization IC80: 0.083 µg/mL
[19]
  neutralization IC50: 37.8 µg/mL
  neutralization IC80: > 50 µg/mL
[20]
  neutralization IC50: 0.001 µg/mL
  neutralization IC80: 0.018 µg/mL
[21]
  neutralization IC50: 0.024 µg/mL
  neutralization IC80: 0.082 µg/mL
[22]
  neutralization IC50: 7.19 µg/mL
  neutralization IC80: > 50 µg/mL
[23]
  neutralization IC50: 0.025 µg/mL
  neutralization IC80: 0.68 µg/mL
[24]
  IC50 (Titer in TZM.bl cells): 3.12 µg/mL
  IC80 (Titer in TZM.bl cells): > 50 µg/mL
[25]
  neutralization IC50: > 50 µg/mL
  neutralization IC80: > 50 µg/mL
[26]
  IC50 (Titer in TZM.bl cells): > 50 µg/mL
  IC80 (Titer in TZM.bl cells): > 50 µg/mL
[27]
  IC50 (Titer in TZM.bl cells): 0.002 µg/mL
  IC80 (Titer in TZM.bl cells): 0.023 µg/mL
[28]
  neutralization IC50: 1.32 µg/mL
  neutralization IC80: > 50 µg/mL
[29]
  neutralization IC50: 0.334 µg/mL
  neutralization IC80: 18 µg/mL
[30]
  IC50 (Titer in TZM.bl cells): 10.3 µg/mL
  IC80 (Titer in TZM.bl cells): > 50 µg/mL
[31]
  neutralization IC50: > 50 µg/mL
  neutralization IC80: > 50 µg/mL
[32]
  IC50 (Titer in TZM.bl cells): 0.241 µg/mL
  IC80 (Titer in TZM.bl cells): 19.7 µg/mL
[33]
  neutralization IC50: 0.018 µg/mL
  neutralization IC80: 0.419 µg/mL
[34]
  neutralization IC50: > 50 µg/mL
  neutralization IC80: > 50 µg/mL
[35]
  IC50 (Titer in TZM.bl cells): 0.001 µg/mL
  IC80 (Titer in TZM.bl cells): 0.013 µg/mL
[36]
  neutralization IC50: < 0.001 µg/mL
  neutralization IC80: 0.009 µg/mL
[37]
  neutralization IC50: 0.103 µg/mL
  neutralization IC80: 1.13 µg/mL
